Source: PMC6215446, “High-level expression and molecular characterization of a recombinant prolidase from Escherichia coli NovaBlue” (PeerJ, 2018)

Tests used:
[1] = test system: C[C@H](N)C(=O)N1CCC[C@H]1C(=O)O; test: proline release, ninhydrin colorimetric assay; Lineweaver-Burk; assay type: biochemical, Escherichia coli; conditions: 0.1 mM Mn2+, 25 mM Tris-HCl pH 8.0, 60 °C, 10 min, substrate 0.2-14.2 mM
[2] = target: the molecule itself; test: SEC; gel filtration on Superdex 200 HiLoad 16/60, 25 mM Tris-HCl buffer (pH 8.0) with 10 mM Mg(OAc)2 and 2 mM DTT; calibrated with thyroglobulin, aldolase, ovalbumin, ribonuclease A; apparent molecular mass of the native form

Q: EcPepQ (Escherichia coli K-12) was tested. Which Km [1] did it give?
A: The Km was 8.8 ± 1.1 mM.

Q: What about the kcat [1] of the same molecule?
A: Its kcat is 926.5 ± 2.0 s⁻¹.

B1: Escherichia coli NovaBlue prolidase (EcPepQ), His6-tagged (enzyme, UniProt P21165 1-443, looked up)
chain: MESLASLYKNHIATLQERTRDALARFKLDALLIHSGELFNVFLDDHPYPFKVNPQFKAWVPVTQVPNCWLLVDGVNKPKLWFYLPVDYWHNVEPLPTSFWTEDVEVIALPKADGIGSLLPAARGNIGYIGPVPERALQLGIEASNINPKGVIDYLHYYRSFKTEYELACMREAQKMAVNGHRAAEEAFRSGMSEFDINIAYLTATGHRDTDVPYSNIVALNEHAAVLHYTKLDHQAPEEMRSFLLDAGAEYNGYAADLTRTWSAKSDNDYAQLVKDVNDEQLALIATMKAGVSYVDYHIQFHQRIAKLLRKHQIITDMSEEAMVENDLTGPFMPHGIGHPLGLQVHDVAGFMQDDSGTHLAAPAKYPYLRCTRILQPGMVLTIEPGIYFIESLLAPWREGQFSKHFNWQKIEALKPFGGIRIEDNVVIHENNVENMTRDLKLA
notes: Prolidase (Xaa-Pro dipeptidase) PepQ of E. coli NovaBlue; residue number of 443 printed; Cloned BamHI/HindIII into pQE-30; also called Xaa-Pro dipeptidase; recombinant enzyme; source: E. coli M15 (pQE-EcPepQ), IPTG-induced, purified (Ni-NTA); not shown: His6, N-terminal, kept
Q: How did the “stoichiometry N” value [2] turn out when B1 was run?
A: Its value is 2.
